Molecular target: T1, His-NEON-EBP50 PDZ1PDZ2 (human, UniProt O14745-1 1-298)
T1 sequence: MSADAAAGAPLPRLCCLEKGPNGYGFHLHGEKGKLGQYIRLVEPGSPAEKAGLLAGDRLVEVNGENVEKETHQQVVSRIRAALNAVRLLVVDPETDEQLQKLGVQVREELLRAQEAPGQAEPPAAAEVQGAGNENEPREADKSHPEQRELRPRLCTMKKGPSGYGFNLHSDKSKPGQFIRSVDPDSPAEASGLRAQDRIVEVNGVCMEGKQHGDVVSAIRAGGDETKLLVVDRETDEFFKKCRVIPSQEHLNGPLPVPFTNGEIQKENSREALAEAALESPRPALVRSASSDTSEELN
Test: pull-down

B1: GST-CDHR5 CD (domain or fragment)
chain: RLKCCCGKAPEPQPQGFDNQAFLPDHKANWAPVPSPTHDPKPAEAPMPAEPAPPGPASPGGAPEPPAAARAGGSPTAVRSILTKERRPEGGYKAVWFGEDIGTEADVVVLNAPTLDVDGASDSGSGDEGEGAGRGGGPYDAPGGDDSYI
B1: binds.

Source: paper doi:10.1101/2023.02.22.529570 (bioRxiv, 2023)
